Measurements reported in PMC4338441, “Non-catalytic motor domains enable processive movement and functional diversification of the kinesin-14 Kar3” (eLife, 2015).
Values belong to the binder of their own block, whether it stands above or below them.

B3: Cik1–Kar3 heterodimer (full-length Cik1-1xFLAG with Halo-Kar3) (complex, S. cerevisiae (S288c))
chain 1: MESLPRTPTKGRSTQHLSTPSPKNDILAMNGHKRRNTTTPPPKHTLLKPQRTDIHRHSLASQSRISMSPNRELLKNYKGTANLIYGNQKSNSGVTSFYKENVNELNRTQAILFEKKATLDLLKDELTETKEKINAVNLKFETLREEKIKIEQQLNLKNNELISIKEEFLSKKQFMNEGHEIHLKQLAASNKKELKQMENEYKTKIEKLKFMKIKQFENERASLLDKIEEVRNKITMNPSTLQEMLNDVEQKHMLEKEEWLTEYQSQWKKDIELNNKHMQEIESIKKEIENTLKPELAEKKKLLTEKRNAYEAIKVKVKEKEEETTRLRDEVALKQKTNLETLEKIKELEEYIKDTELGMKELNEILIKEETVRRTLHNELQELRGNIRVYCRIRPALKNLENSDTSLINVNEFDDNSGVQSMEVTKIQNTAQVHEFKFDKIFDQQDTNVDVFKEVGQLVQSSLDGYNVCIFAYGQTGSGKTFTMLNPGDGIIPSTISHIFNWINKLKTKGWDYKVNCEFIEIYNENIVDLLRSDNNNKEDTSIGLKHEIRHDQETKTTTITNVTSCKLESEEMVEIILKKANKLRSTASTASNEHSSRSHSIFIIHLSGSNAKTGAHSYGTLNLVDLAGSERINVSQVVGDRLRETQNINKSLSCLGDVIHALGQPDSTKRHIPFRNSKLTYLLQYSLTGDSKTLMFVNISPSSSHINETLNSLRFASKVNSTRLVSRK
chain 2: MNNSKIPKLSFHSDPNNVTRDFPKTKRQKVQKREMDMILTPNNNKLNILHSSGSGIRRCYTDDTSATYTKKLTFGGDPKIIERVKNNERKVRKDIDSLLNAISEIEKESVRIHARELPAITLELDAKVKACRELQNEIDGLSTEMDLKDNQCDLQRKNVELSSKNIVSMHAVKVQEFENDLEEELSNAKREWTYKLMEVENLKPDERLTDEMRQLKTEFEEVNRKLFILQNENENECKNYKKELDKKFEIFKKVKNDARIELDGEQERLSKVLKDLQDTHGELKENIKTCRDEFNDFEKRIGEAEVNFHSMELAVVPLKKKLASTSQALTQVQEEKKQVEGEANNWKKKYVNELEKVQQELYTRQNLATSIEEIKGYTRCFAYANERQMPDEFHINYVDRCICENSGEKRVQVFDRVVLEEIHKDHKRLYNECIPFLEKYISKLINCSIIVVSQQPTAPMKKTLLKQLIEQYGENYKMTLNILHLDGSIKHSDVGLDNPTEIRDLSQDEECMNILTLDTKLGKDEESHSMNIYIGSMSTVQLNRELDDAPSVLSHILTKTKQCFVFKINAGENIEKALALAGKLKRTITLPQLD
modifications: HaloTag TMR ligand or HaloTag Alexa488 ligand covalently bound to the HaloTag (imaging experiments)
notes: also called Cik1–Kar3-Halo; Cik1–Halo–Kar3; source: if needed MonoS; not shown: HaloTag, N-terminal, kept

Experiments:
[1] = biological target: B3; assay: pull-down; 0.1–1 μM GST-tagged bait immobilised on glutathione sepharose; binding partner at a constant 0.5–1 μM; 25 mM Hepes pH 7.2, 250 mM NaCl, 1 mM MgCl2, 1 mM EGTA, 0.5 mM DTT, 0.05% NP-40; 1 hr at 4°C; SDS-PAGE, Coomassie; settings: both partners purified
[2] = biological target: T1, Halo-Kar3 (full-length Kar3 fused to a HaloTag) (S. cerevisiae (S288c), UniProt P17119 1-729, HaloTag TMR ligand (tetramethylrhodamine) or HaloTag Alexa488 ligand covalently bound to the HaloTag); assay: co-IP; two subunits co-overexpressed in S. cerevisiae; FLAG-tagged subunit bound to M2 anti-FLAG affinity agarose (lysis buffer 300 mM NaCl, washes 150 mM NaCl), HaloTag labelled on the resin, eluted with 3xFLAG peptide; Coomassie SDS-PAGE and fluorescence of the Halo-Kar3 subunit; settings: partners not purified
T1 construct: methods and legends say amino-terminal; also called Kar3-Halo; Kar3-HALO; not shown: HaloTag, N-terminal, kept
T1 sequence (looked up): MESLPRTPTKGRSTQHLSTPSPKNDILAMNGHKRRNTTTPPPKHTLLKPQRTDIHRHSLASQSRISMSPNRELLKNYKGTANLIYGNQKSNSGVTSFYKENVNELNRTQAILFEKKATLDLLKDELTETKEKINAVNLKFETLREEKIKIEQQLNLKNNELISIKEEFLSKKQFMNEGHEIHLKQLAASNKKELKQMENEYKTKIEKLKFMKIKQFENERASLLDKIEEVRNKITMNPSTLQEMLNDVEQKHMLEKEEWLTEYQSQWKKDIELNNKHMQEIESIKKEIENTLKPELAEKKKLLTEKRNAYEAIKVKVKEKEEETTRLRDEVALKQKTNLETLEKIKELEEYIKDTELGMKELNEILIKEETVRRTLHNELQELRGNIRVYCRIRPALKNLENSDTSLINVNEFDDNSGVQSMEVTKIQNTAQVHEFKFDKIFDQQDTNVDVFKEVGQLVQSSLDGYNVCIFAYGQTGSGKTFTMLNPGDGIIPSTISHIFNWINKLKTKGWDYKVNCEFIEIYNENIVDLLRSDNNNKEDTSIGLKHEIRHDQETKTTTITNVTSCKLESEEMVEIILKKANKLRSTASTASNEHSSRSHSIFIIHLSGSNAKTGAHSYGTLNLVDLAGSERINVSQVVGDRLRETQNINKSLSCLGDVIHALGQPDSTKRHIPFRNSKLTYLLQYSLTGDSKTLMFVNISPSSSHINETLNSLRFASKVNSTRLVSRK

[3] = biological target: T2, recombinant full-length Ndc80 complex (Ndc80p-6xHis/Nuf2p-EGFP and Spc24p/6xHis/Spc25p) (UniProt P40460 1-691; P33895 1-451; Q04477 1-213; P40014 1-221); assay: in vitro recruitment to microtubules (TIRF microscopy); bulk recruitment assay in the absence of nucleotide; TMR-labeled Kar3 motors and fluorescently labeled recombinant Ndc80 complex on surface-immobilised taxol-stabilized microtubules; settings: both partners purified
T2 construct: Ndc80p, budding yeast; Nuf2p, budding yeast; Spc24p, budding yeast; Spc25p, budding yeast; also called Ndc80-eGFP complex; Ndc80 kinetochore complex; source: recombinant; expression and purification as described previously (Lampert et al., 2013; Lampert et al., 2010); copies: + + +
T2 sequence (P40460 whole entry, chain 1 of 4): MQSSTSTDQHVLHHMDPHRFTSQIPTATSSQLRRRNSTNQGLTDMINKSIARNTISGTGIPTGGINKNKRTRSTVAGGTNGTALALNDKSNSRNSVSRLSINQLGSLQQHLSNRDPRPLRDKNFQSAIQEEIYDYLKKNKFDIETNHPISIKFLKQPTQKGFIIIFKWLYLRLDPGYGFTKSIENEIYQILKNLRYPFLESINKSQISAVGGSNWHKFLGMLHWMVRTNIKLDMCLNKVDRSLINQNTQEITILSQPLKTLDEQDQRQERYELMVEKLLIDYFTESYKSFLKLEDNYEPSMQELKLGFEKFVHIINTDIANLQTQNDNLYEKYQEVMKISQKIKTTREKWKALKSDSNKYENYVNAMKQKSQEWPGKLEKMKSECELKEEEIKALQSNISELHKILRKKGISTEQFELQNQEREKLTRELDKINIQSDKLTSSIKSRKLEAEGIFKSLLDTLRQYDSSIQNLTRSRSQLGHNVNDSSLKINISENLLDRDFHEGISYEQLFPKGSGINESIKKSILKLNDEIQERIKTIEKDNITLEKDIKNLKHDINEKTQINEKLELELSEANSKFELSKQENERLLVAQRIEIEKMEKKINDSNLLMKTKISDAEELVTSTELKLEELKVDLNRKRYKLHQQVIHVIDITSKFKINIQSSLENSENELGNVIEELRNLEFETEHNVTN
T2 sequence (P33895 whole entry, chain 2 of 4): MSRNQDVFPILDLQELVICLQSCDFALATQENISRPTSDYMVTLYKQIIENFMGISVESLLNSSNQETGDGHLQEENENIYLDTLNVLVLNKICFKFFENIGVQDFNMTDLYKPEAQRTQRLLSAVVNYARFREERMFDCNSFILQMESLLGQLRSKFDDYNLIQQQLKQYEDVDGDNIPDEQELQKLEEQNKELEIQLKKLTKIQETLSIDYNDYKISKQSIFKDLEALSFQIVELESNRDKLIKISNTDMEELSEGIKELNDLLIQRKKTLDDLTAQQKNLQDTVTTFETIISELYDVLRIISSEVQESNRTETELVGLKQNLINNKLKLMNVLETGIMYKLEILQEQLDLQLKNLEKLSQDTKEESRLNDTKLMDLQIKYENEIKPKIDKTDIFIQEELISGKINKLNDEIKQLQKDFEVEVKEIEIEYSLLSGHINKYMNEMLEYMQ
T2 sequence (Q04477 whole entry, chain 3 of 4): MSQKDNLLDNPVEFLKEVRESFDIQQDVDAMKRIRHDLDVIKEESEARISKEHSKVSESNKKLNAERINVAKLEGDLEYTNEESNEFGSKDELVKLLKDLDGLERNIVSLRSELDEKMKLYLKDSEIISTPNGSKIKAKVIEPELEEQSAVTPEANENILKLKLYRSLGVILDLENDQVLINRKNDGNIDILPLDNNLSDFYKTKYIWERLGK
T2 sequence (P40014 whole entry, chain 4 of 4): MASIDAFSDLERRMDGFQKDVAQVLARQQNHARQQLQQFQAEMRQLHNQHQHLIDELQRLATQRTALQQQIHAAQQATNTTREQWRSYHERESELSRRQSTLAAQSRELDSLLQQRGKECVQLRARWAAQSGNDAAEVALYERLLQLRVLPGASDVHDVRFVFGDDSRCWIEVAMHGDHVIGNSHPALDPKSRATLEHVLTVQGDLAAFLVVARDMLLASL

[4] = biological target: B3; assay: SEC; analytical size exclusion chromatography of Cik1–Kar3 and Bim1 individually or in combination; settings: both partners purified

B1: GST-Bim1^185–344 (domain or fragment, budding yeast, UniProt P40013 185-344, looked up)
chain: IQAELTKSQETIGSLNEEIEQYKGTVSTLEIEREFYFNKLRDIEILVHTTQDLINEGVYKFNDETITGHGNGNGGALLRFVKKVESILYATAEGFEMNDGEDELNDKNLGEHGTVPNQGGYANSNGEVNGNEGSNHDVIMQNDEGEVGVSNNLIIDEETF
notes: also called C-terminal EB homology domain of Bim1; source: recombinant; expressed and purified as described previously (Zimniak et al., 2009)
binding result [1]: binds

B2: Cik1-1xFLAG (full-length Cik1, aa 1–594) (natural protein, S. cerevisiae (S288c), UniProt Q01649 1-594, looked up)
chain: MNNSKIPKLSFHSDPNNVTRDFPKTKRQKVQKREMDMILTPNNNKLNILHSSGSGIRRCYTDDTSATYTKKLTFGGDPKIIERVKNNERKVRKDIDSLLNAISEIEKESVRIHARELPAITLELDAKVKACRELQNEIDGLSTEMDLKDNQCDLQRKNVELSSKNIVSMHAVKVQEFENDLEEELSNAKREWTYKLMEVENLKPDERLTDEMRQLKTEFEEVNRKLFILQNENENECKNYKKELDKKFEIFKKVKNDARIELDGEQERLSKVLKDLQDTHGELKENIKTCRDEFNDFEKRIGEAEVNFHSMELAVVPLKKKLASTSQALTQVQEEKKQVEGEANNWKKKYVNELEKVQQELYTRQNLATSIEEIKGYTRCFAYANERQMPDEFHINYVDRCICENSGEKRVQVFDRVVLEEIHKDHKRLYNECIPFLEKYISKLINCSIIVVSQQPTAPMKKTLLKQLIEQYGENYKMTLNILHLDGSIKHSDVGLDNPTEIRDLSQDEECMNILTLDTKLGKDEESHSMNIYIGSMSTVQLNRELDDAPSVLSHILTKTKQCFVFKINAGENIEKALALAGKLKRTITLPQLD
notes: source: if needed MonoS; not shown: 1xFLAG, C-terminal, kept
binding result [2]: binds

Binder: B3
binding result [3]: binds

Further lines, results first:

binding result [1]: binds
B4: GST-Bim1^FL (natural protein, budding yeast, UniProt P40013 1-344, looked up)
chain: MSAGIGESRTELLTWLNGLLNLNYKKIEECGTGAAYCQIMDSIYGDLPMNRVKFNATAEYEFQTNYKILQSCFSRHGIEKTVYVDKLIRCKFQDNLEFLQWLKKHWIRHKDESVYDPDARRKYRPIITNNSATKPRTVSNPTTAKRSSSTGTGSAMSGGLATRHSSLGINGSRKTSVTQGQLVAIQAELTKSQETIGSLNEEIEQYKGTVSTLEIEREFYFNKLRDIEILVHTTQDLINEGVYKFNDETITGHGNGNGGALLRFVKKVESILYATAEGFEMNDGEDELNDKNLGEHGTVPNQGGYANSNGEVNGNEGSNHDVIMQNDEGEVGVSNNLIIDEETF
notes: Bim1, the EB1 homologue of budding yeast, full length; also called full-length Bim1; source: recombinant; expressed and purified as described previously (Zimniak et al., 2009)

binding result [4]: binds
B5: Bim1 (as used in analytical size exclusion chromatography) (natural protein, budding yeast, UniProt P40013 1-344, looked up)
chain: MSAGIGESRTELLTWLNGLLNLNYKKIEECGTGAAYCQIMDSIYGDLPMNRVKFNATAEYEFQTNYKILQSCFSRHGIEKTVYVDKLIRCKFQDNLEFLQWLKKHWIRHKDESVYDPDARRKYRPIITNNSATKPRTVSNPTTAKRSSSTGTGSAMSGGLATRHSSLGINGSRKTSVTQGQLVAIQAELTKSQETIGSLNEEIEQYKGTVSTLEIEREFYFNKLRDIEILVHTTQDLINEGVYKFNDETITGHGNGNGGALLRFVKKVESILYATAEGFEMNDGEDELNDKNLGEHGTVPNQGGYANSNGEVNGNEGSNHDVIMQNDEGEVGVSNNLIIDEETF
notes: Bim1, the EB1 homologue of budding yeast; source: recombinant; expressed and purified as described previously (Zimniak et al., 2009)
